B1: recombinant alpha subunit of human mitochondrial trifunctional protein, wild type (enzyme)
chain: not shown
notes: also called hTFPα; hTFPα-wt; source: E. coli BL21 (DE3), purified (Ni-NTA, SEC on Superdex 200)
B2: recombinant alpha subunit of human mitochondrial trifunctional protein, Y271F mutant (enzyme)
chain: not shown
notes: also called hTFPα-Y271F; source: E. coli BL21 (DE3), purified (Ni-NTA, TEV cleavage, SEC)

Target: the molecule itself
Experiment: SEC; Superdex 200 16/60 preparative grade; 50 mM Tris-HCl pH 8.0, 100 mM NaCl, 5% glycerol, 0.1% Tween 20; apparent molecular weight from a calibration curve

Protein	stoichiometry N
B1	2
B2	2
